Reference: publication doi:10.1101/2025.08.26.672026 (bioRxiv, 2025)

Biological target: the molecule itself
Test: negative stain EM

B1: RPS2^ΔN26 (domain or fragment, Arabidopsis thaliana, UniProt Q42484 27-909, looked up)
chain: HKTDLRQAITDLETAIGDLKAIRDDLTLRIQQDGLEGRSCSNRAREWLSAVQVTETKTALLLVRFRRREQRTRMRRRYLSCFGCADYKLCKKVSAILKSIGELRERSEAIKTDGGSIQVTCREIPIKSVVGNTTMMEQVLEFLSEEEERGIIGVYGPGGVGKTTLMQSINNELITKGHQYDVLIWVQMSREFGECTIQQAVGARLGLSWDEKETGENRALKIYRALRQKRFLLLLDDVWEEIDLEKTGVPRPDRENKCKVMFTTRSIALCNNMGAEYKLRVEFLEKKHAWELFCSKVWRKDLLESSSIRRLAEIIVSKCGGLPLALITLGGAMAHRETEEEWIHASEVLTRFPAEMKGMNYVFALLKFSYDNLESDLLRSCFLYCALFPEEHSIEIEQLVEYWVGEGFLTSSHGVNTIYKGYFLIGDLKAACLLETGDEKTQVKMHNVVRSFALWMASEQGTYKELILVEPSMGHTEAPKAENWRQALVISLLDNRIQTLPEKLICPKLTTLMLQQNSSLKKIPTGFFMHMPVLRVLDLSFTSITEIPLSIKYLVELYHLSMSGTKISVLPQELGNLRKLKHLDLQRTQFLQTIPRDAICWLSKLEVLNLYYSYAGWELQSFGEDEAEELGFADLEYLENLTTLGITVLSLETLKTLFEFGALHKHIQHLHVEECNELLYFNLPSLTNHGRNLRRLSIKSCHDLEYLVTPADFENDWLPSLEVLTLHSLHNLTRVWGNSVSQDCLRNIRCINISHCNKLKNVSWVQKLPKLEVIELFDCREIEELISEHESPSVEDPTLFPSLKTLRTRDLPELNSILPSRFSFQKVETLVITNCPRVKKLPFQERRTQMNLPTVYCEEKWWKALEKDQPNEELCYLPRFVPN
- stoichiometry N: 8
